In the supplement of paper PMC9732359:
± gives the uncertainty stated by the source.

Assay: protein stability index of a GFP-peptide fusion (yeast GPS) (PSI 1-4); higher = more stable; sorted into four equal gates, so the index is relative within each strain
In short: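 Sequencing reads from sorted gates were used to score each peptide. The library consisted of tiled 17-residue yeast protein peptides fused downstream of GFP on a Cherry-expressing plasmid, pooled and carried in yeast. Mid-log cultures in leucine-free medium were split into four equal gates by GFP/Cherry ratio, and each gate's plasmids were PCR-amplified and Illumina-sequenced. The protein stability index adds up, over all gates, the read frequency multiplied by the gate number.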

Row | Sequence | protein stability index (doa10∆) | protein stability index (pdr5∆) | protein stability index (san1∆) | protein stability index (ubr1∆)
1 | QKKILSIRLKVPPTIAQ [RPL8A] | 1.53 ± 0.037 | 1.66 ± 0.037 | 1.5 ± 0.06 | 1.69 ± 0.029
2 | KLLLLRINSTDEDLHEF [SRB8] | 2.61 ± 0.2 | 3.06 ± 0.16 | 2.94 ± 0.18 | 3.24 ± 0.27
3 | YRSCETQDESEIKDAET [SMC4] | 3.77 ± 0.25 | – | 3.31 ± 0.16 | –
4 | RNQRKGAGSIFTSHTRL [RPL2A] | 2.03 ± 0.054 | 3.12 ± 0.067 | 2.73 ± 0.05 | 3.09 ± 0.059
5 | QLNCIDTQFTKLLDDNP [SRB8] | 2.44 ± 0.074 | 2.7 ± 0.068 | 2.57 ± 0.065 | 2.9 ± 0.048
6 | DVNALKFNNTQRESQIG [SNF12] | 2.31 ± 0.092 | 2.75 ± 0.067 | 2.68 ± 0.077 | 3.12 ± 0.063
7 | FNTPFANTGGQDKIELS [SNF2] | 1.89 ± 0.18 | – | 1.55 ± 0.2 | 1.87 ± 0.2
8 | SSRLEFVKGISRDIKAL [YML103C/NUP188] | 2.39 ± 0.081 | 1.81 ± 0.057 | 1.99 ± 0.085 | 1.62 ± 0.04
9 | FLTNYNVRMDTMANILY [RPB2] | 3.58 ± 0.17 | 3.02 ± 0.098 | 3.48 ± 0.1 | 3.48 ± 0.14
10 | EIIPLQDYYIIGANIYQ [MED6] | 2.97 ± 0.064 | 3.07 ± 0.052 | 3.16 ± 0.04 | 3.1 ± 0.044
11 | YSRITLIIDDPSKGQSL [RPP1] | 2.09 ± 0.056 | 2.44 ± 0.063 | 2.42 ± 0.048 | 2.78 ± 0.053
12 | LISNAIYGKKTMVIQDE [ECM29] | 1.58 ± 0.25 | 1.83 ± 0.27 | – | 1.4 ± 0.14
13 | QQMQPPNSSANNNPLQQ [GAL11] | 3.02 ± 0.055 | 2.9 ± 0.05 | 2.89 ± 0.041 | 2.95 ± 0.048
14 | IAYSDSQSSNANICLTF [SIN4] | 2.74 ± 0.1 | 2.7 ± 0.065 | 2.38 ± 0.081 | 2.89 ± 0.069
15 | DNNSSLNVSNTKENGDF [PRP8] | 3.17 ± 0.083 | 2.84 ± 0.084 | 2.9 ± 0.058 | 3.39 ± 0.074
16 | LEEDSKKVNGTSYKKWS [PRP8] | 3.3 ± 0.14 | 3.41 ± 0.15 | 3.24 ± 0.075 | 3.03 ± 0.092
17 | ETDGKHGKRRSQVVETH [YMR129W/POM152] | 3.27 ± 0.11 | 2.93 ± 0.097 | 3.21 ± 0.056 | 3.11 ± 0.048
18 | WYEASTWIQQFKSTMLQ [ARP7] | 2.54 ± 0.078 | 2.68 ± 0.069 | 2.6 ± 0.093 | 2.14 ± 0.056
19 | QLKFEGFALNSDIVFIH [BRR2] | 1.87 ± 0.064 | 1.71 ± 0.061 | 2.06 ± 0.065 | 1.81 ± 0.036
20 | GAKPAGSTGGLGASFGQ [YGL172W/NUP49] | 3.38 ± 0.14 | 3.41 ± 0.24 | 3.22 ± 0.11 | 3.54 ± 0.071
21 | RRSLKKQGRIKNATEEL [CSN12] | 3.2 ± 0.098 | 3.56 ± 0.083 | 3.37 ± 0.086 | 3.57 ± 0.066
22 | KITSPIRSVALNDSNVK [RRP42] | 2.6 ± 0.12 | 2.42 ± 0.11 | 2.59 ± 0.1 | 2.94 ± 0.078
23 | NEPSQSLISTRNDSTVN [BRN1] | 3.16 ± 0.07 | 3.17 ± 0.086 | 3.08 ± 0.071 | 2.82 ± 0.045
24 | ATPQDAQFYLGKRIAYV [RPL33A] | 2.29 ± 0.082 | 2.66 ± 0.07 | 2.57 ± 0.074 | 2.7 ± 0.075
25 | RTLTAVHDKILEDLVFP [RPS7A] | 3.24 ± 0.13 | 3.15 ± 0.073 | 3.28 ± 0.059 | 3.25 ± 0.098
26 | YGRKSFRNNKNDNYSSD [REC8] | 3.28 ± 0.096 | 3.22 ± 0.068 | 3.32 ± 0.05 | 3.14 ± 0.059
